Drawing on paper PMC10039049, this text covers Kd for four substances.

Broadly, the Kd is the concentration at which binding is half-saturated. A lower Kd goes with a tighter complex.

This test has as its target extracellular leucine-rich repeat (LRR) domain of OsER1 (OsER1^LRR) (rice (Oryza sativa)) (UniProt Q69SP5). Put plainly: ITC; about 0.3 mM OsEPFL peptide injected (24 x 1.5 uL) into 0.03 mM OsER1^LRR in the cell; ITC200, 25 °C, 10 mM Bis-Tris pH 6.0, 100 mM NaCl. Background: ITC needs no label: the signal is the heat of the interaction.
UniProt Q69SP5, sequence (Q69SP5 25-577): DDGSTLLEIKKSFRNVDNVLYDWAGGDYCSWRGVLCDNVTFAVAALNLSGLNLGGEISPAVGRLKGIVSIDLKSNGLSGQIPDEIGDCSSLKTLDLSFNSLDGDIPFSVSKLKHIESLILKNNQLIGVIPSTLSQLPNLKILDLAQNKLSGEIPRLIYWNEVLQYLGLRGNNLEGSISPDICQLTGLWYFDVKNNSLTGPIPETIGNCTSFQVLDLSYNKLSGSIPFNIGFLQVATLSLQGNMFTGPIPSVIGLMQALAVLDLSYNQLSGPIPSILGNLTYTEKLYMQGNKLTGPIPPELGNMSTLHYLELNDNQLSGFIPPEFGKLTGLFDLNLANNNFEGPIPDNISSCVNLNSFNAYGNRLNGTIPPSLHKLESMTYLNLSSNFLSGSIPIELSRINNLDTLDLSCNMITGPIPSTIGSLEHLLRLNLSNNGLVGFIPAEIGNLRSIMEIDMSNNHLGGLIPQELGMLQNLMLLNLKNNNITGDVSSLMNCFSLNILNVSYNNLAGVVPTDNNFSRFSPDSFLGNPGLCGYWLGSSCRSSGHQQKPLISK
Consider predicted mature small peptide OsEPFL6, for which the Kd came to 1.35 µM.

In turn, predicted mature small peptide OsEPFL7 came in with a Kd of 1.02 µM.

For predicted mature small peptide OsEPFL8, the Kd came to 18.7 µM.

Turning to predicted mature small peptide OsEPFL9, the equilibrium dissociation constant (Kd) was 56.8 µM.
